{"source": "paper PMC7954794", "about": "“Protein context shapes the specificity of SH3 domain-mediated interactions in vivo” (Nature Communications, 2021)", "molecules": {"B1": {"name": "ABP1: yeast SH3-containing protein; SH3-deleted (D) or gene-deleted (KO) strain (protein, UniProt P15891 2-592, looked up)", "Actin-binding protein": "ALEPIDYTTHSREIDAEYLKIVRGSDPDTTWLIISPNAKKEYEPESTGSSFHDFLQLFDETKVQYGLARVSPPGSDVEKIIIIGWCPDSAPLKTRASFAANFAAVANNLFKGYHVQVTARDEDDLDENELLMKISNAAGARYSIQTSSKQQGKASTPPVKKSFTPSKSPAPVSKKEPVKTPSPAPAAKISSRVNDNNDDDDWNEPELKERDFDQAPLKPNQSSYKPIGKIDLQKVIAEEKAKEDPRLVQKPTAAGSKIDPSSDIANLKNESKLKRDSEFNSFLGTTKPPSMTESSLKNDDDKVIKGFRNEKSPAQLWAERKAKQNSGNAETKAEAPKPEVPEDEPEGEPDVKDLKSKFEGLAASEKEEEEMENKFAPPPKKSEPTIISPKPFSKPQEPVKAEEAEQPKTDYKKIGNPLPGMHIEADNEEEPEENDDDWDDDEDEAAQPPLPSRNVASGAPVQKEEPEQEEIAPSLPSRNSIPAPKQEEAPEQAPEEEIEEEAEEAAPQLPSRSSAAPPPPPRRATPEKKPKENPWATAEYDYDAAEDNELTFVENDKIINIEFVDDDWWLGELEKDGSKGLFPSNYVSLGN"}}, "tested_on": "Abp1 PPIs", "experiment": "DHFR-PCA of Abp1 SH3-swapped baits (Fig. 2B-D, S2C, S2F);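 for Protein-protein interaction distance between Abp1 SH3-swapped baits, to ABP1: Euclidean distance between DHFR-PCA score profiles of the baits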;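 for Protein-protein interaction distance between Abp1 SH3-swapped baits, to BEM1-2: Euclidean distance between DHFR-PCA score profiles of the baits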;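 for Protein-protein interaction distance between Abp1 SH3-swapped baits, to BOI1: Euclidean distance between DHFR-PCA score profiles of the baits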;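 for Protein-protein interaction distance between Abp1 SH3-swapped baits, to BZZ1-1: Euclidean distance between DHFR-PCA score profiles of the baits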", "type": "cell-based, Saccharomyces cerevisiae", "details": "sheet Fig2C", "how_it_was_run": "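Interactions were scored by DHFR protein-fragment complementation. DHFR F[1,2]-tagged Abp1 strains, whose SH3 was swapped for yeast or human ortholog domains, were crossed on YPD at 30 °C for 48 h with a 1536-format array of 575 prey-DHFR F[3] strains and 40 negatives, giving four replicates per pair. PCA selection lasted 4 days after double diploid selection.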"}
{"molecule": "B1", "values": [{"measurement": "Protein-protein interaction distance between Abp1 SH3-swapped baits, to ABP1", "setting": "Abp1 bait with swapped SH3, distance to bait with ABP1 SH3", "result": 0.00}, {"measurement": "Protein-protein interaction distance between Abp1 SH3-swapped baits, to BBC1", "setting": "distance to Abp1 bait with BBC1 SH3", "result": 7.08}, {"measurement": "Protein-protein interaction distance between Abp1 SH3-swapped baits, to BEM1-1", "setting": "distance to Abp1 bait with BEM1-1 SH3", "result": 14.06}, {"measurement": "Protein-protein interaction distance between Abp1 SH3-swapped baits, to BEM1-2", "setting": "distance to Abp1 bait with BEM1-2 SH3", "result": 32.3}, {"measurement": "Protein-protein interaction distance between Abp1 SH3-swapped baits, to BOI1", "setting": "distance to Abp1 bait with BOI1 SH3", "result": 11.59}, {"measurement": "Protein-protein interaction distance between Abp1 SH3-swapped baits, to BOI2", "setting": "distance to Abp1 bait with BOI2 SH3", "result": 14.52}, {"measurement": "Protein-protein interaction distance between Abp1 SH3-swapped baits, to BUD14", "setting": "distance to Abp1 bait with BUD14 SH3", "result": 17.23}, {"measurement": "Protein-protein interaction distance between Abp1 SH3-swapped baits, to BZZ1-1", "setting": "distance to Abp1 bait with BZZ1-1 SH3", "result": 9.504}, {"measurement": "Protein-protein interaction distance between Abp1 SH3-swapped baits, to BZZ1-2", "setting": "distance to Abp1 bait with BZZ1-2 SH3", "result": 10.54}, {"measurement": "Protein-protein interaction distance between Abp1 SH3-swapped baits, to CDC25", "setting": "distance to Abp1 bait with CDC25 SH3", "result": 26.13}, {"measurement": "Protein-protein interaction distance between Abp1 SH3-swapped baits, to CTTN", "setting": "distance to Abp1 bait with CTTN SH3", "result": 9.394}, {"measurement": "Protein-protein interaction distance between Abp1 SH3-swapped baits, to CYK3", "setting": "distance to Abp1 bait with CYK3 SH3", "result": 26.78}, {"measurement": "Protein-protein interaction distance between Abp1 SH3-swapped baits, to DBNL", "setting": "distance to Abp1 bait with DBNL SH3", "result": 8.805}, {"measurement": "Protein-protein interaction distance between Abp1 SH3-swapped baits, to FUS1", "setting": "distance to Abp1 bait with FUS1 SH3", "result": 18.44}, {"measurement": "Protein-protein interaction distance between Abp1 SH3-swapped baits, to HCLS1", "setting": "distance to Abp1 bait with HCLS1 SH3", "result": 7.682}, {"measurement": "Protein-protein interaction distance between Abp1 SH3-swapped baits, to HOF1", "setting": "distance to Abp1 bait with HOF1 SH3", "result": 30.98}, {"measurement": "Protein-protein interaction distance between Abp1 SH3-swapped baits, to HSE1", "setting": "distance to Abp1 bait with HSE1 SH3", "result": 9.43}, {"measurement": "Protein-protein interaction distance between Abp1 SH3-swapped baits, to LSB1", "setting": "distance to Abp1 bait with LSB1 SH3", "result": 13.24}, {"measurement": "Protein-protein interaction distance between Abp1 SH3-swapped baits, to LSB3", "setting": "distance to Abp1 bait with LSB3 SH3", "result": 13.53}, {"measurement": "Protein-protein interaction distance between Abp1 SH3-swapped baits, to MYO3", "setting": "distance to Abp1 bait with MYO3 SH3", "result": 12.85}, {"measurement": "Protein-protein interaction distance between Abp1 SH3-swapped baits, to MYO5", "setting": "distance to Abp1 bait with MYO5 SH3", "result": 12.37}, {"measurement": "Protein-protein interaction distance between Abp1 SH3-swapped baits, to NBP2", "setting": "distance to Abp1 bait with NBP2 SH3", "result": 16.16}, {"measurement": "Protein-protein interaction distance between Abp1 SH3-swapped baits, to PEX13", "setting": "distance to Abp1 bait with PEX13 SH3", "result": 10.96}, {"measurement": "Protein-protein interaction distance between Abp1 SH3-swapped baits, to PIN3", "setting": "distance to Abp1 bait with PIN3 SH3", "result": 11.43}, {"measurement": "Protein-protein interaction distance between Abp1 SH3-swapped baits, to RVS167", "setting": "distance to Abp1 bait with RVS167 SH3", "result": 9.548}, {"measurement": "Protein-protein interaction distance between Abp1 SH3-swapped baits, to SDC25", "setting": "distance to Abp1 bait with SDC25 SH3", "result": 33.14}, {"measurement": "Protein-protein interaction distance between Abp1 SH3-swapped baits, to SHO1", "setting": "distance to Abp1 bait with SHO1 SH3", "result": 8.989}, {"measurement": "Protein-protein interaction distance between Abp1 SH3-swapped baits, to SLA1-1", "setting": "distance to Abp1 bait with SLA1-1 SH3", "result": 28.73}, {"measurement": "Protein-protein interaction distance between Abp1 SH3-swapped baits, to SLA1-2", "setting": "distance to Abp1 bait with SLA1-2 SH3", "result": 19.01}, {"measurement": "Protein-protein interaction distance between Abp1 SH3-swapped baits, to SLA1-3", "setting": "distance to Abp1 bait with SLA1-3 SH3", "result": 13.16}, {"measurement": "Protein-protein interaction distance between Abp1 SH3-swapped baits, to YSC84", "setting": "distance to Abp1 bait with YSC84 SH3", "result": 13.97}]}
